From paper PMC2408616, “Modular Organization and Combinatorial Energetics of Proline–Tyrosine Nuclear Localization Signals” (PLoS Biology, 2008)

B1: MBP–Nab2p NLS [S. cerevisiae] / Kap104p [yeast (S. cerevisiae)] (parent complex)
chain 1: DNSQRFTQRGGGAVGKNRRGGRGGNRGGRNNNSTRFNPLAKALGMAGESNM
chain 2: MASTWKPAEDYVLQLATLLQNCMSPNPEIRNNAMEAMENFQLQPEFLNYLCYILIEGESDDVLKQHYSLQDLQNNRATAGMLLKNSMLGGNNLIKSNSHDLGYVKSNIIHGLYNSNNNLVSNVTGIVITTLFSTYYRQHRDDPTGLQMLYQLLELTSNGNEPSIKALSKIMEDSAQFFQLEWSGNTKPMEALLDSFFRFISNPNFSPVIRSESVKCINTVIPLQTQSFIVRLDKFLEIIFQLAQNDENDLVRAQICISFSFLLEFRPDKLVSHLDGIVQFMLHLITTVNEEKVAIEACEFLHAFATSPNIPEHILQPYVKDIVPILLSKMVYNEESIVLLEASNDDDAFLEDKDEDIKPIAPRIVKKKEAGNGEDADDNEDDDDDDDDEDGDVDTQWNLRKCSAATLDVMTNILPHQVMDIAFPFLREHLGSDRWFIREATILALGAMAEGGMKYFNDGLPALIPFLVEQLNDKWAPVRKMTCWTLSRFSPWILQDHTEFLIPVLEPIINTLMDKKKDVQEAAISSVAVFIENADSELVETLFYSQLLTSFDKCLKYYKKKNLIILYDAIGRFAEKCALDETAMQIILPPLIEKWALLSDSDKELWPLLECLSCVASSLGERFMPMAPEVYNRAFRILCHCVELEAKSHQDPTIVVPEKDFIITSLDLIDGLVQGLGAHSQDLLFPQGTKDLTILKIMLECLQDPVHEVRQSCFALLGDIVYFFNSELVIGNLEDFLKLIGTEIMHNDDSDGTPAVINAIWALGLISERIDLNTYIIDMSRIILDLFTTNTQIVDSSVMENLSVTIGKMGLTHPEVFSSGAFANDSNWNKWCLSVNALDDVEEKSSAYMGFLKIINLTSTEVTMSNDTIHKIVTGLSSNVEANVFAQEIYTFLMNHSAQISAINFTPDEISFLQQFTS
B2: MBP–Hrp1p NLS [S. cerevisiae] / Kap104p [yeast (S. cerevisiae)] (parent complex)
chain 1: RDRNDRDRDYNHRSGGNHRRNGRGGRGGYNRRNNGYHPYNR
chain 2: B1 chain 2

Variants of: B1
Test: ITC; parent: 37 nM

Variant	Kd
chain 1 DNSQRFTQRGGGAVGKNRRGGRGGNRGGRNNNSTHFNPLAKALGMAGESNM [chain 1 R35H]	63 nM
chain 1 DNSQRFTQRGGGAVGKNRRGGRGGNRGGRNNNSTRLNPLAKALGMAGESNM [chain 1 F36L]	66 nM
chain 1 DNSQRFTQRGGGAVGKNRRGGRGGNRGGRNNNSTRANPLAKALGMAGESNM [chain 1 F36A]	296 nM
chain 1 DNSQRFTQRGGGAVGKNKKGGKGGNKGGKNNNSTRFNPLAKALGMAGESNM [chain 1 R18K, chain 1 R19K, chain 1 R22K, chain 1 R26K, chain 1 R29K]	21 nM

Variants of: B2
Test: ITC; parent: -10.1

Variant	dG
chain 1 RDRNDRDRDYNHRSGGNHKKNGKGGKGGYNRRNNGYHPYNR [chain 1 R19K, chain 1 R20K, chain 1 R23K, chain 1 R26K]	-10 kcal/mol
chain 1 RDRNDRDRDYNHRSGGNHRRNGRGGRGGYNRRNNGLHPYNR [chain 1 Y36L]	-10 kcal/mol
chain 1 RDRNDRDRDYNHRSGGNHRRNGRGGRGGYNRANNGYHPYNR [chain 1 R32A]	-10.5 kcal/mol
chain 1 RDRNDRDRDYNHRSGGNHARNGRGGRGGYNRRNNGAHPYNR [chain 1 R19A, chain 1 Y36A]	-9.7 kcal/mol
chain 1 RDRNDRDRDYNHRSGGNHRRNGRGGRGGYNARNNGYHPYNR [chain 1 R31A]	-10 kcal/mol
